According to patent US11266616B2, “Compositions and methods for inhibiting kinase activity” (BRANDEIS UNIVERSITY, priority 2016, dated 2022):
“Also recorded” adds a separate entry of the source. One block for each molecule: values may come before it.

What was measured:
[1] = test system: dephosphorylated Aurora A kinase-TPX2 chimera; assay: ITC binding to dephosphorylated Aurora A kinase-TPX2 chimera; parameters: species or system human; details: PIF pocket occupied by TPX2; relative to Aurora A kinase alone
Experimental: (§1) Titrations were carried out using Nano ITC isothermal titration calorimeter (TA Instruments) and analyzed via the NanoAnalyze software using the independent fit model. Injectant was added in 1 μl volume, every 180 s, with a constant stirring speed at 350 rpm and at 25° C. Prior to ITC titration, both protein and TPX2 or monobody were dialyzed/resuspended in ITC buffer (20 mM TrisHCl, 200 mM NaCl, 3% (vol/vol) glycerol, 1 mM TCEP, pH 7.50).

[2] = biological target: T1, dephosphorylated Aurora A kinase (Homo sapiens, UniProt O14965); assay: Isothermal titration calorimetry (ITC) binding to dephosphorylated Aurora A kinase; details: for change of binding affinity of monobody to dephosphorylated Aurora A kinase: Aurora A pre-saturated with danusertib, FIGS. 11A-11B; for binding affinity of monobody to dephosphorylated Aurora A kinase / binding affinity of sGFP-monobody fusion to Aurora A kinase compared with the monobody: ITC; for binding affinity of monobody to dephosphorylated Aurora A kinase: FIG. 8; for binding affinity of sGFP-monobody fusion to Aurora A kinase compared with the monobody: FIGS. 17B, 18D
T1 construct: Codon-optimized Aurora A^122-403 in pET28a and untagged λPP in T7-7 plasmid were co-transformed in BL21(DE3) cells; inferred from pET28a and the NiNTA column) (cleaved yes); made in house; host or cells: E. coli BL21(DE3), co-expressed with lambda protein phosphatase
T1 sequence (O14965 122-403): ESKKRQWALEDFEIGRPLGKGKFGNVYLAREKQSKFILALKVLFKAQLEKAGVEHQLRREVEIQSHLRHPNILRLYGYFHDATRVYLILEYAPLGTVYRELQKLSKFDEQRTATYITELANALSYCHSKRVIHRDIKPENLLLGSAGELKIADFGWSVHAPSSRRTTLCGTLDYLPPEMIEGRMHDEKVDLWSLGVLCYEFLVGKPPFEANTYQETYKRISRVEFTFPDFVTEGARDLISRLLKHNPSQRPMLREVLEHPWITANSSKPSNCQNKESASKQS
Experimental: as §1

Aurora A kinase = biological target: T2, Aurora A kinase (Homo sapiens, UniProt O14965); assay: In vitro kinase assay (HPLC-based / ATP/NADH-coupled) of peptide substrate phosphorylation; format: biochemical; details: for effect of monobody on Aurora A kinase activity: Lats2 peptide substrate, FIG. 9
T2 construct: Codon-optimized Aurora A^122-403 in pET28a and untagged λPP in T7-7 plasmid were co-transformed in BL21(DE3) cells; inferred from pET28a and the NiNTA column) (cleaved yes); made in house; host or cells: E. coli BL21(DE3)
T2 sequence (O14965 122-403): T1 sequence (O14965 122-403)
Experimental: Aurora A, either phosphorylated/dephosphorylated wild type or mutant protein, was mixed with either AP ([…]) (SEQ ID NO: 5), Kemptide (LRRASLG) (SEQ ID NO: 6), or Lats2 ([…]) (SEQ ID NO: 7), in the absence or presence of 50 μM TPX2 in kinase buffer (20 mM TrisHCl, 200 mM NaCl, 3% [vol/vol] glycerol, 20 mM MgCl2, 1 mM TCEP, pH 7.50). These substrates comprise the consensus sequence for Aurora A ([R/K/N]—R—X—[S/T]-B where B is any hydrophobic residue with the exception of Pro) (Ferrari et al., 2005, Biochem. J., 390(Pt 1):293-302; Ohashi et al., 2006, Oncogene, 25:7691-7702; Sardon et al., 2010, EMBO Reports, 11:977-984). Peptides were ordered through Genscript. For HPLC-based activity assays the following protocol was used. The reaction was initiated with the addition of 5 mM ATP. Then 5 μl time points were collected, resuspended in 10 μl 6% (vol/vol) trichloroacetic acid (in water) to quench the reaction, and neutralized with 50 μl 100 mM KH2PO4, pH 8.0 to provide the appropriate pH for nucleotide separation. The mixture was then passed through a 0.22 μm SpinX column to remove any protein precipitation. Reverse phase-high performance liquid chromatography (RP-HPLC) and an ACE 5 C18-AR, 100 Å pore size column, were used to separate nucleotides as well as peptides. For nucleotide runs, 2 μl of the aforementioned mixture was sufficient for analysis, whereas for the peptide runs the optimal injection volume was 20 μl. Nucleotide runs were routinely performed to ensure no unproductive hydrolysis was occurring during the experiment. An isocratic elution run in 100 mM KH2PO4, pH 6.0 was performed for this purpose. For the peptide runs, a gradient of 0-30% of elution buffer lasting 10 min at 0.4 mL/min was sufficient to separate phosphorylated from non-phosphorylated species. The running buffer was 0.1% TFA (vol/vol) in water, while the elution buffer was 100% acetonitrile. Lastly, to ensure full saturation of Aurora A by TPX2 and test these proteins were well behaved, a dose-dependence curve of the effect of TPX2 on Aurora A was obtained.
For ATP/NADH-coupled assay-based reaction, the following protocol was used. Phosphorylation of different concentrations of Lats2 peptide was monitored using the ATP/NADH coupled assay in a 96-well plate format. Reactions were carried in the presence of 1 μM dephosphorylated or 0.05 μM phosphorylated Aurora and 5 mM ATP in assay buffer (20 mM TrisHCl, 200 mM NaCl, 20 mM MgCl2, 10% (v/v) glycerol, 1 mM TCEP, pH 7.50) at 25° C.

HEK293 cells = assay: HEK293 viability (luminescence) after 7 hours of treatment; format: cell-based, human; details: various monobody concentrations, FIG. 17E
Text: (§2) FIGS. 17A-17F present a set of plots, images and graphs showing data gathered using cultured HEK293 cells. In FIGS. 17A-17F, alternative names of the monobodies described herein are used. […] The error bars represent the standard error for the estimate of Kd and are a measure of the goodness of fit of the data. […] As observed in FIG. 17D, sGFP-Mb60's optimal cell delivery occurs after 7 hrs of exposure. FIG. 17E presents a bar graph of luminescence (mean±SEM, n=4 measurements/dataset) as a measure of HEK293 viability after cells were treated for 7 hours under the conditions indicated below the x-axis. Asterisks indicate significance levels of between-conditions t-test comparisons of the different conditions with liposome-treated control; […]; **=p≤0.01; ***=p≤0.001. […] Cells were quadruple stained to visualize DNA/sGFP(−Mbs)/Aurora A kinase/TPX2. […] In the images, DNA stained blue; GFP stained green; Aurora A kinase stained red; and […].

[3] = test system: Aurora A kinase in HEK293 cells; assay: Immunofluorescence co-localization with Aurora A kinase in HEK293 cells; format: cell-based, human; details: 7 hours after delivery, FIG. 17F
Text: as §2

B1: Mb60: monobody binding allosteric site of Aurora A kinase, SEQ ID NO: 4; inhibitor (protein, listed as Homo sapiens)
chain: GSVSSVPTKLEVVAATPTSLLISWDAPAVTVVHYVITYGETGGNSPVQEFTVPGSKSTATISGLKPGVDYTITVYAIDFYWGSYSPISINYRT
Activity of Monobody on Aurora A kinase (Aurora A kinase): inhibitor | effect of monobody on Aurora A kinase activity (Aurora A kinase): inhibitor; also recorded: inhibited; also recorded: strong inhibition | change of binding affinity of monobody to dephosphorylated Aurora A kinase [2]: tightened | binding affinity of monobody to dephosphorylated Aurora A kinase [2]: low μM levels

B3: Mb56: monobody binding allosteric site of Aurora A kinase, SEQ ID NO: 3; inhibitor (protein, listed as Homo sapiens)
chain: GSVSSVPTKLEVVAATPTSLLISWDAMSDWYYWVDYYRITYGETGGNSPVQEFTVPGSYSTATISGLKPGVDYTITVYASDDVWGDYSPISINYRT
Activity of Monobody on Aurora A kinase (Aurora A kinase): inhibitor | effect of monobody on Aurora A kinase activity (Aurora A kinase): strongly inhibit | binding affinity of monobody to dephosphorylated Aurora A kinase [2]: low nanomolar affinities

B4: Mb44: monobody binding allosteric site of Aurora A kinase, SEQ ID NO: 1; inhibitor (protein, listed as Homo sapiens)
chain: GSVSSVPTKLEVVAATPTSLLISWDAPAVTVDFYVITYGETGGYSYPWQEFEVPGSKSTATISGLKPGVDYTITVYADYGQYFYSPISINYRT
Activity of Monobody on Aurora A kinase (Aurora A kinase): inhibitor | effect of monobody on Aurora A kinase activity (Aurora A kinase): strongly inhibit | binding affinity of monobody to dephosphorylated Aurora A kinase [2]: low μM levels

B5: Mb6: monobody binding allosteric site of Aurora A kinase, SEQ ID NO: 10; activity neutral (protein, listed as Homo sapiens)
chain: GSVSSVPTKLEVVAATPTSLLISWDAFGHQYEPVYYYRITYGETGGNSPVQEFTVPGYYSTATISGLKPGVDYTITVYAWYVDGSYSSPISINYRT
Activity of Monobody on Aurora A kinase (Aurora A kinase): neutral | effect of monobody on Aurora A kinase activity (Aurora A kinase): weakest regulator; also recorded: did not significantly modulate; also recorded: neutral activity | binding affinity of monobody to dephosphorylated Aurora A kinase [2]: low nM affinity; also recorded: low nanomolar affinities

B6: sGFP-Mb6: fusion polypeptide of supercharged GFP and activity-neutral monobody Mb6 (protein)
chain: B5 chain
modifications: left off: large carriers
cell death / viability of HEK293 cells (HEK293 cells): statistically significant cell death | co-localization with Aurora A kinase [3]: strong co-localization

B7: Mb51: monobody binding allosteric site of Aurora A kinase, SEQ ID NO: 2; inhibitor (protein, listed as Homo sapiens)
chain: GSVSSVPTKLEVVAATPTSLLISWDAKPMSYEPVYYYRITYGETGGNSPVQEFTVPGYYSTATISGLKPGVDYTITVYADSMSSYYYSPISINYRT
Activity of Monobody on Aurora A kinase (Aurora A kinase): inhibitor | effect of monobody on Aurora A kinase activity (Aurora A kinase): strongly inhibit | binding affinity of monobody to dephosphorylated Aurora A kinase [2]: low nanomolar affinities

B8: Mb54: monobody binding allosteric site (PIF pocket) of Aurora A kinase, SEQ ID NO: 11; activator (protein, listed as Homo sapiens)
chain: GSVSSVPTKLEVVAATPTSLLISWDAQTYQMYDYVSYYRITYGETGGNSPVQEFTVPGYYSTATISGLKPGVDYTITVYAEGYYSSYSPISINYRT
Activity of Monobody on Aurora A kinase (Aurora A kinase): activator | effect of monobody on Aurora A kinase activity (Aurora A kinase): strongest activator; also recorded: activate; also recorded: activation | change of binding affinity of monobody to dephosphorylated Aurora A kinase [2]: weakened | binding affinity of monobody to dephosphorylated Aurora A kinase [2]: low nanomolar affinities

Second part, led by results:

binding of danusertib to Aurora A kinase chimera weaker than binding to Aurora A kinase [1]: about 4 times | weakening of binding affinity of danusertib ([2]; Aurora A pre-saturated with activating monobody Mb54 (aka Mb1), FIG. 10C): 19 fold | tightening of binding affinity of danusertib ([2]; Aurora A pre-saturated with inhibiting monobody Mb60 (aka Mb2), FIG. 10C): 4.7 fold | binding of danusertib to Aurora A tighter in the presence of PS48 ([2]; saturating levels of PS48 vs none): about 2 times
Molecule: CO[C@@H](C(=O)N1Cc2[nH]nc(NC(=O)c3ccc(N4CCN(C)CC4)cc3)c2C1)c1ccccc1 [danusertib, reference compound]

inhibition of Aurora A kinase activity by sGFP fusion compared with the monobody (Aurora A kinase; FIG. 17C): same extent as Mb60
B2: sGFP-Mb60: fusion polypeptide of supercharged GFP and inhibiting monobody Mb60 (aka Mb2) (protein)
chain: B1 chain
modifications: left off: large carriers
cell death / viability of HEK293 cells (HEK293 cells): statistically significant cell death | co-localization with Aurora A kinase [3]: strong co-localization | binding affinity of sGFP-monobody fusion to Aurora A kinase compared with the monobody [2]: comparable; also recorded: closely mimicked the binding

binding affinity of sGFP-monobody fusion to Aurora A kinase compared with the monobody [2]: closely mimicked the binding
B9: sGFP-Mb54: fusion polypeptide of supercharged GFP and activating monobody Mb54 (aka Mb1) (protein)
chain: B8 chain
modifications: left off: large carriers
cell death / viability of HEK293 cells (HEK293 cells): did not cause cell death | co-localization with Aurora A kinase [3]: strong co-localization
